{"source": "paper PMC3790809", "about": "(2013)", "binders": {"B1": {"name": "YsaNflr-His (full length YsaN, refolded) (enzyme)", "chain": "MNLFDSCAHPSRIHGCLLEAPLHGVFIGEICLIERDLCQPEVIAKAQVVGFKEGQTILSLIGRAQGLTREVVIRPTGQPFVFEMGEHLAGKIYNAAGEEVGVLSNATASSEPLFTTLCRVDNPPVSVNLRRPVTTPLVTGVRAIDGLLTCGQGQRMGIFAAAGSGKTSLMSMIMNHAVADICVIALIGERGREVTEFIHELQTSPRAAQTILVYATSDSPAVERCNAALLATAMAEYFRDQGKDVLLFVDSMTRYARALRDVALAAGELPARRGYPASVFEQLPLLLERPGALQHGSITAFYTVLLESEEESDPIGDEIRSIIDGHIYLSAQLAGRGHYPAIDILHSISRVFSKVTTPQHRQDAAKTRDMLGRLAQIQLYLDLGEYQRGENTDNDHALDNRDVIEGFLQQAMEEPGEFSTTLNQLRELAN"}, "B2": {"name": "YsaNΔ(1–5)-His (domain or fragment)", "chain": "SCAHPSRIHGCLLEAPLHGVFIGEICLIERDLCQPEVIAKAQVVGFKEGQTILSLIGRAQGLTREVVIRPTGQPFVFEMGEHLAGKIYNAAGEEVGVLSNATASSEPLFTTLCRVDNPPVSVNLRRPVTTPLVTGVRAIDGLLTCGQGQRMGIFAAAGSGKTSLMSMIMNHAVADICVIALIGERGREVTEFIHELQTSPRAAQTILVYATSDSPAVERCNAALLATAMAEYFRDQGKDVLLFVDSMTRYARALRDVALAAGELPARRGYPASVFEQLPLLLERPGALQHGSITAFYTVLLESEEESDPIGDEIRSIIDGHIYLSAQLAGRGHYPAIDILHSISRVFSKVTTPQHRQDAAKTRDMLGRLAQIQLYLDLGEYQRGENTDNDHALDNRDVIEGFLQQAMEEPGEFSTTLNQLRELAN"}, "B3": {"name": "YsaNΔ(426–430)-His (domain or fragment)", "chain": "MNLFDSCAHPSRIHGCLLEAPLHGVFIGEICLIERDLCQPEVIAKAQVVGFKEGQTILSLIGRAQGLTREVVIRPTGQPFVFEMGEHLAGKIYNAAGEEVGVLSNATASSEPLFTTLCRVDNPPVSVNLRRPVTTPLVTGVRAIDGLLTCGQGQRMGIFAAAGSGKTSLMSMIMNHAVADICVIALIGERGREVTEFIHELQTSPRAAQTILVYATSDSPAVERCNAALLATAMAEYFRDQGKDVLLFVDSMTRYARALRDVALAAGELPARRGYPASVFEQLPLLLERPGALQHGSITAFYTVLLESEEESDPIGDEIRSIIDGHIYLSAQLAGRGHYPAIDILHSISRVFSKVTTPQHRQDAAKTRDMLGRLAQIQLYLDLGEYQRGENTDNDHALDNRDVIEGFLQQAMEEPGEFSTTLNQL"}, "B4": {"name": "YsaNΔ(411–430)-His (domain or fragment)", "chain": "MNLFDSCAHPSRIHGCLLEAPLHGVFIGEICLIERDLCQPEVIAKAQVVGFKEGQTILSLIGRAQGLTREVVIRPTGQPFVFEMGEHLAGKIYNAAGEEVGVLSNATASSEPLFTTLCRVDNPPVSVNLRRPVTTPLVTGVRAIDGLLTCGQGQRMGIFAAAGSGKTSLMSMIMNHAVADICVIALIGERGREVTEFIHELQTSPRAAQTILVYATSDSPAVERCNAALLATAMAEYFRDQGKDVLLFVDSMTRYARALRDVALAAGELPARRGYPASVFEQLPLLLERPGALQHGSITAFYTVLLESEEESDPIGDEIRSIIDGHIYLSAQLAGRGHYPAIDILHSISRVFSKVTTPQHRQDAAKTRDMLGRLAQIQLYLDLGEYQRGENTDNDHALDNRDVIEGFLQQ"}}, "key": {"untagged YsaL (YE3555) [1]": {"target": "untagged YsaL (YE3555)", "experiment": "SPR; refolded YsaN"}, "untagged YsaL (YE3555) [2]": {"target": "untagged YsaL (YE3555)", "experiment": "SPR"}, "untagged YsaL (YE3555) [3]": {"target": "untagged YsaL (YE3555)", "experiment": "SPR", "remark": "listed apart in the source"}, "untagged YsaL (YE3555) [4]": {"target": "untagged YsaL (YE3555)", "experiment": "SPR", "remark": "listed apart in the source"}}}
{"binder": "B1", "values": [{"measurement": "Kd", "setting": "untagged YsaL (YE3555) [1]", "value": 42, "unit": "nM"}]}
{"binder": "B2", "values": [{"measurement": "Kd", "setting": "untagged YsaL (YE3555) [2]", "value": 500000, "unit": "nM"}]}
{"binder": "B3", "values": [{"measurement": "Kd", "setting": "untagged YsaL (YE3555) [3]", "value": 114, "unit": "nM"}]}
{"binder": "B4", "values": [{"measurement": "Kd", "setting": "untagged YsaL (YE3555) [4]", "value": 260, "unit": "nM"}]}
